In patent US20170320956A1 (KYMAB, published 2017):
Changes are numbered by the printed parent chain. Like-named read-outs stand apart in the source and are kept apart here. Blank lines part the entries; values can stand above or below the binder they belong to.

Tests used:
[1] = molecular target: T1, recombinant human LIGHT-214E, FLAG-tagged extracellular domain (human); assay: cell-based or functional assay
T1 chain: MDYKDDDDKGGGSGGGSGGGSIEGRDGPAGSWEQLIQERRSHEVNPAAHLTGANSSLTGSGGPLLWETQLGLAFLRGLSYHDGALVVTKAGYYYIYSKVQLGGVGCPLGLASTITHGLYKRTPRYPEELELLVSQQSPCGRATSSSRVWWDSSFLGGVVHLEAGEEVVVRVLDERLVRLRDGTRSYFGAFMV

[2] = molecular target: human LIGHT-214E, full length, expressed on the surface of CHO-S cells (human, UniProt O43557 1-240); assay: FACS, CHO-S cells expressing hLIGHT-214E
mouse LIGHT [3] = molecular target: T2, mouse LIGHT (mouse, UniProt Q9QYH9 72-239, limits assumed); assay: SPR ProteOn, mAb captured on anti-mouse IgG
T2 construct: also called murine LIGHT
T2 sequence (looked up): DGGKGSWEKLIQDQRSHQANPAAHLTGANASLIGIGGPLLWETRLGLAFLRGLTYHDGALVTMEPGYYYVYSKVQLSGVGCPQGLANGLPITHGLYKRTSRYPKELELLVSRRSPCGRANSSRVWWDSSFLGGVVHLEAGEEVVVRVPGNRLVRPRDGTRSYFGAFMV

[4] = molecular target: T1, recombinant human LIGHT-214E, …; assay: HTRF competition, HVEM-Fc binding to Flag-hLIGHT-214E
Procedure: (§1) The following methods were carried out with a titration of inhibitor in order to establish the clone potency as measured by IC50 values in the assay. 5 μl of Flag-tagged hLIGHT (in-house) diluted to 2.5 nM final concentration (10 nM working concentration) in HTRF buffer with 5 μl of a titration of antibody purified from hybridoma supernatant diluted in HTRF assay buffer from 300 nM final (1200 nM working concentration) was pre-incubated for 1 hour at room temperature. To wells used to define total binding, 5 μl of LIGHT (10 nM working, 2.5 nM final) and 5 μl of hybridoma maintaining media (HMM,)) were added. To wells used to define non specific binding (receptor only) 10 μl of HMM was added. Total and non specific binding wells were pre-incubated for 1 hr at RT in the same plate as wells containing titration of inhibitor.

[5] = molecular target: T1, recombinant human LIGHT-214E, …; assay: HTRF competition, LTβR-Fc binding to Flag-hLIGHT-214E
Procedure: as §1
LIGHT receptor was diluted in HTRF assay buffer and added to all wells, 5 μl/well of HVEM-Fc or LTβR-Fc (R&D systems) at 1.2 nM for HVEM (0.3 nM final) and 0.4 nM for LTβR (0.1 nM final).

[6] = molecular target: T3, recombinant human LIGHT-214K, FLAG-tagged extracellular domain (human); assay: SPR ProteOn, mAb captured on anti-mouse IgG, LIGHT 256 nM, 25 C, apparent affinity
T3 construct: the IgK leader peptide is marked only by underlining (not visible here), so its residues were not removed; Trimer
T3 chain: T1 chain with E166K
Procedure: (§2) SPR analysis was carried out using the ProteOn™ XPR36 Array System (BioRad). Anti-mouse IgG (GE Healthcare BR-1008-38) was immobilised on a GLC biosensor surface using amine coupling, the surface was then blocked using 1M ethanolamine. […] Apparent affinities for the LIGHT-antibody interaction were determined using the 1:1 model inherent to the ProteOn XPR36 analysis software. The assay was run using HBS-EP (Teknova) as running buffer and carried out at 25° C.

[7] = molecular target: T4, recombinant cynomolgus monkey LIGHT, FLAG-tagged extracellular domain (cynomolgus (Macaca fascicularis), UniProt E9NVF7 59-240); assay: as above
T4 construct: extracellular domain; also called cynomolgus LIGHT; cyno LIGHT
Procedure: as §2
Target sequence in this assay (E9NVF7 entry or part of it): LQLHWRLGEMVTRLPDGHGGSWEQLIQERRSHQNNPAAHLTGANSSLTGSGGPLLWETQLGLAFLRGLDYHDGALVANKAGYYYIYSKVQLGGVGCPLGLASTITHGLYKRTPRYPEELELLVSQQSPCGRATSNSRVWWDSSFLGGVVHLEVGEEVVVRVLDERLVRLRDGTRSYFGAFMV

[8] = molecular target: T3, recombinant human LIGHT-214K, …; assay: SPR cross-binding study, IgG4(PE) format; column hLIGHT 214K Binder
Procedure: All antibodies tested in the competition SPR were in human IgG4(PE) format (see Example 5 for re-formatting methods). To investigate antibodies that may share the same binding region on LIGHT, an SPR based assay was carried out on the ProteOn™ XPR36 Array System. […] The anti-human IgG surface was used as a capture surface to capture test antibodies as “ligands” for analysis. Using the ProteOn™ XPR36 Array System ability to address the capture surface in either the vertical or horizontal orientation the assay was carried out as follows. The “Ligand” antibodies were captured in the vertical orientation, and then a 1 in 1000 dilution of mouse serum was used to block the capture surface in the horizontal orientation. LIGHT was then passed over the capture surface in the horizontal orientation and bound to the captured ligand antibody, after which the same ligand antibody was passed over the “antibody-LIGHT” complex, (LIGHT is a trimer, so this ensures all available LIGHT molecules are bound to by the Ligand antibody), again the second application of the ligand antibody was in the vertical orientation. […] Binding/no-binding is determined by monitoring the sensorgrams, which were double referenced using a non-LIGHT binding antibody as a control sample and was included with every set of ligand antibodies run. […]

mouse LIGHT [9] = molecular target: T2, mouse LIGHT; assay: SPR ProteOn, mAb captured on anti-human IgG
[10] = molecular target: T1, recombinant human LIGHT-214E, …; assay: HTRF competition, AlexaFluor 647 HVEM-Fc binding to Flag-hLIGHT-214E
[11] = molecular target: T1, recombinant human LIGHT-214E, …; assay: HTRF competition, AlexaFluor 647 LTβR-Fc binding to Flag-hLIGHT-214E
[12] = molecular target: T3, recombinant human LIGHT-214K, …; assay: SPR ProteOn, mAb captured on anti-human IgG, 25 C, apparent affinity
[13] = molecular target: T1, recombinant human LIGHT-214E, …; assay: cell-based or functional assay
[14] = molecular target: T5, rabbit LIGHT protein, FLAG-tagged extracellular domain (rabbit); assay: SPR ProteOn, mAb captured on anti-human IgG, 25 C
T5 chain: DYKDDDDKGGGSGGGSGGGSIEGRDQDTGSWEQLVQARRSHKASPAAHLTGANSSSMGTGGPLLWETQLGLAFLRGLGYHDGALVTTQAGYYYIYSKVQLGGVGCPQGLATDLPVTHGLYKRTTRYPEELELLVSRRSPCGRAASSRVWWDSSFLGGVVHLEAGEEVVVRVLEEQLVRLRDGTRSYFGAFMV
Procedure: This created a capture surface suitable for capturing human antibodies. The LIGHT antibodies were captured on this anti-human IgG surface, and then human and rabbit LIGHT proteins were passed over captured LIGHT Abs at a concentration of 200 nM. A buffer injection was used to double reference the LIGHT binding sensorgrams. The assay was run at 25° C., using HBS-EP as running buffer.

[15] = molecular target: T1, recombinant human LIGHT-214E, …; assay: SPR ProteOn, mAb captured on anti-human IgG, 37 C
[16] = molecular target: T3, recombinant human LIGHT-214K, …; assay: SPR ProteOn, mAb captured on anti-human IgG, 37 C
[17] = molecular target: T4, recombinant cynomolgus monkey LIGHT, …; assay: SPR ProteOn, mAb captured on anti-human IgG, 37 C
[18] = molecular target: T1, recombinant human LIGHT-214E, …; assay: HTRF competition, AlexaFluor 647 HVEM-Fc binding to Flag-hLIGHT-214E
Procedure: as §1
(§3) The final IgG4(PE) format lead panel was analysed for neutralization activity as in Example 3. Antibodies were tested for their ability to neutralize LIGHT binding to its receptors, HVEM and LTβR, in an HTRF assay. Antibodies were also tested for their ability to neutralize LIGHT-induced IL-8 release by HT29 colon carcinoma cells.
(§4) HTRF assays were performed as per Example 3, with the following modifications: HVEM-Fc and LTβR-Fc were labelled with AlexaFluor 647, and an anti-Flag K antibody (Cisbio) was used for detection.

[19] = molecular target: T1, recombinant human LIGHT-214E, …; assay: HTRF competition, AlexaFluor 647 LTβR-Fc binding to Flag-hLIGHT-214E
Procedure: as §1, §3, §4

[20] = molecular target: T1, recombinant human LIGHT-214E, …; assay: SPR ProteOn, mAb captured on anti-mouse IgG, LIGHT 256 nM, 25 C, apparent affinity
Procedure: as §2

- HT29 IL-8 release, IC50 [1]: 0.327 nM
- binding result [2]: binds
- binding result (mouse LIGHT [3]): no binding
- IC50 [4]: 1.32 nM
- IC50 [5]: 1.64 nM
- Kd [6]: 2.33 nM
- Kd [7]: 3.11 nM
B1: 18E04 (purified from hybridoma supernatant, mouse IgG) (antibody, V domains shown)
VH: QVLLVQSGAEVKKPGASVKVSCKASGYTFTHFDINWVRQATGQGLEWMGWMNPDSDNTDYAQEFQGRVTMTRDTSISTAYMELSSLRSEDTAVYYCARGGTTLDYWGQGTLVTVSS
VL: SYELTQPPSVSVSPGQTARITCSGDALPKKYAYWYQQKSGQAPVLVIYEDSKRPSGIPERFSGSSSGTMATLTISGAQVEDEADYYCYSTDSSDNHVIFGGGTKLTVL
notes: Murine C / human V chimeric IgG, lambda, purified from hybridoma supernatant

- binding result [8]: no binding
B2: 117C06 in human IgG4(PE) format (antibody, V domains shown)
VH: QVQLVQSGAEVKKPGASVKVSCKASGYTFVNFGISWVRQAPGQGLEWMGWISVYSGNTNYAQKLQGRVTLTTDTSTTTAYMELRSLRSDDTAVYYCARHNWNDYWGQGTLVTVSS
VL: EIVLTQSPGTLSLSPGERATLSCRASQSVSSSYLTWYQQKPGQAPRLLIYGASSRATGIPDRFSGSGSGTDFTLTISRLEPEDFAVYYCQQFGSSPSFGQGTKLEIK

- HT29 IL-8 release, IC50 [1]: 0.556 nM
- binding result (mouse LIGHT [9]): no binding
- IC50 [10]: 0.698 nM
- IC50 [11]: 2.07 nM
- binding result [12]: binds
B3: 01C06 in human IgG4(PE) format (antibody, V domains shown)
VH: QVQLVESGGGLVKPGGSLRLSCAASGFTFSDYYMNWIRQAPGKGLEWIADISSRDNTIYYADSVKGRFTISRDNAKNSLYLQMNSLRAEDTAVYYCARERGFGDYFGMDVWGQGTTVTVSS
VL: AIQLTQSPSSLSASVGDRVTIACRASQDISSALAWFRQTPGKTPKLLIYDASSLESGVPSRFLGSGSGTDFTLTISSLQPEDFAIYYCQQFNTYPLTFGGGTKVEIK

- HT29 IL-8 release, IC50 [13]: 1.22 nM
- binding result [14]: binds
- Kd [15]: 0.293 nM
- Kd [16]: 0.401 nM
- Kd [17]: 0.207 nM
- IC50 [18]: 1.29 nM
- IC50 [19]: 3.15 nM
B4: 13H04 in human IgG4(PE) format (antibody, V domains shown)
VH: QVQLVQSGAEVKKPGASVKVSCKASGYTFTSYGISWVRQAPGQGLEWMGWISAHNANTNYAQKLQGRVTMTTDTSTSTAYMELRSLRSDDTAMYYCARLYRNWFDPWGQGTLVTVSS
VL: QSALTQPASVSGSPGQSITISCTGTSSDVGGYNYVSWYQQHPGKAPKLMIYDVSKRPSGVSNRFSGSKSGNTASLTISGLQAEDEADYYCCSYAGSSTLLFGGGTKLTVL

- HT29 IL-8 release, IC50 [1]: 0.261 nM
- HT29 IL-8 release, IC50 [13]: 0.26 nM
- binding result (mouse LIGHT [9]): no binding
- binding result [14]: binds
- Kd [16]: 0.822 nM
- IC50 [10]: 1.64 nM
- IC50 [11]: 3.48 nM
- IC50 [18]: 1.64 nM
- IC50 [19]: 3.48 nM
B5: 01C02 in human IgG4(PE) format (antibody, V domains shown)
VH: QVQLVQSGAEVQKPGASVMVSCKASGYTFTYYGISWVRQAPGQGLEWMGWISANSGNTNYAQKFQGRVTMTTDTSTNTAYMELRSLRTDDTAVYYCAKGGVAVLEYWGQGTLVTVSS
VL: DIQLTQSPSFLSASVGDRVTITCWASQGISSYLAWYQQKPGKAPNLLIYVASTLQSGVPSRFSGSGSGTEFTLTISSLQPEDFATYYCQQLKIYPLTFGGGTKVEIK

- HT29 IL-8 release, IC50 [1]: 0.166 nM
- binding result [2]: binds
- binding result (mouse LIGHT [3]): no binding
- IC50 [4]: 1.08 nM
- IC50 [5]: 2.06 nM
- Kd [20]: 0.045 nM
- Kd [6]: 296 nM
- Kd [7]: 0.257 nM
B6: 98C07 (purified from hybridoma supernatant, mouse IgG) (antibody, V domains shown)
VH: QVQLVESGGGLVKPGGSLRLSCAASGFTFSDYYMSWIRQAPGKGLEWVSYISRSSFIYYSESVKGRFTISRDNAKNSLYLQMNSLRAEDTAVYYCARWELSPFDYWGQGTLVTVSS
VL: DIQMTQSPSSLSASVGDRVTITCRASQGISNYLAWFQQKPGKAPKSLIYAASSLQSGVPSKFSGSGSGTDFTLTISSLQPEDFATYFCQQYNTYPFTFGPGTKVDIK
notes: Murine C / human V chimeric IgG, kappa, purified from hybridoma supernatant
